Values of other authors in publication PMC8694941 (RSC Advances, 2021).

Conditions: commonly used comparator tracer

Substance: [^68Ga]Ga-DOTA-c(RGDfK) (head to tail)
- partition coefficient (log D): around −3.43
